# Test results reported in the supplement of paper PMC6757056.
# ± gives the standard deviation of the averaged measurements.
# B1: library; a variant is named by its letters at N, in order (parent)
# chain: GCUGUCACCGGUGUAUUACCCUAGUGGUCGACCGGUCUGAUGAGUCUNNNNNNAGACGAAACAGC
# Legend:
# hypoxanthine [1] = variants of: B1; assay: normalized RNA/DNA level with ligand (relative to sTRSVctl = 100) (log10 (% of sTRSVctl)); ligand: hypoxanthine (xanthine aptamer); higher = less ribozyme self-cleavage, higher mRNA level; conditions: ligand concentration (+) RNA-Seq: 5 mM, HEK293T, reporter: mCherry (pCS4076), ligand present: yes
# Procedure, shortened: (§1)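 For each 6-well well, 4 µg of library plasmid encoding mCherry-linked ribozyme switches, or eGFP-linked ones in some ligand experiments, was transfected into HEK293T. Any ligand was added 1 h before transfection, and RNA was extracted with EDTA 72 h after it, then reverse-transcribed, amplified, barcoded and sequenced. RNA level was obtained by dividing RNA reads by DNA reads, normalizing to a spiked-in non-cleaving sequence or to the top sequences, then scaling and log-transforming. The top set was 25 sequences, scaling was ×100 with log10, and ≥100 DNA reads were required.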
# hypoxanthine [2] = variants of: B1; assay: normalized RNA/DNA level without ligand (relative to sTRSVctl = 100) (log10 (% of sTRSVctl)); ligand: hypoxanthine (xanthine aptamer); higher = less ribozyme self-cleavage, higher mRNA level; conditions: HEK293T, reporter: mCherry (pCS4076), ligand present: no
# Procedure, shortened: as §1
Variant,normalized RNA/DNA level with ligand (log10) (hypoxanthine [1]),normalized RNA/DNA level without ligand (log10) (hypoxanthine [2])
GAUAAC,1.92 ± 0.079,1.712 ± 0.0033
GAUGUC,1.95 ± 0.0048,1.92 ± 0.02
GAUGUA,1.887 ± 0.018,1.79 ± 0.03
GCAAUU,1.952 ± 0.011,1.858 ± 0.0079
CAUAGC,1.923 ± 0.0099,1.86 ± 0.014
CAUAGU,2 ± 0.039,1.88 ± 0.019
CAUAGG,1.836 ± 0.015,1.43 ± 0.11
UAUAUU,1.907 ± 0.0056,1.847 ± 0.0083
UAUAUC,1.94 ± 0.044,1.936 ± 0.0031
UCACCC,1.97 ± 0.026,1.89 ± 0.029
GAUAGU,1.88 ± 0.059,1.72 ± 0.034
GAUAGC,1.87 ± 0.025,1.55 ± 0.097
UAUGCA,1.88 ± 0.022,1.83 ± 0.019
UAUGCU,1.92 ± 0.013,1.85 ± 0.03
UAUGCC,1.935 ± 0.0058,1.87 ± 0.067
UAUGCG,1.8828 ± 0.0017,1.67 ± 0.037
CAGUGC,1.96 ± 0.0096,1.814 ± 0.0038
GAUUCA,1.961 ± 0.017,1.86 ± 0.041
GAUUCU,1.97 ± 0.065,1.92 ± 0.042
GAUUCC,1.976 ± 0.0082,1.92 ± 0.034
GAUCCU,1.979 ± 0.014,1.948 ± 0.012
GAUCCC,2.05 ± 0.042,1.889 ± 0.0035
GAUCCA,1.908 ± 0.0041,1.9 ± 0.03

Variant,normalized RNA/DNA level with ligand (log10) (hypoxanthine [1]),normalized RNA/DNA level without ligand (log10) (hypoxanthine [2])
CCAAAA,1.92 ± 0.032,1.82 ± 0.052
CCAAAG,1.885 ± 0.013,1.58 ± 0.033
CCAAGA,1.945 ± 0.0033,1.82 ± 0.034
CCAAGG,1.83 ± 0.036,1.603 ± 0.013
AAUUGU,1.93 ± 0.004,1.705 ± 0.013
AAUUGC,1.905 ± 0.013,1.82 ± 0.046
GAUUUC,1.972 ± 0.018,1.907 ± 0.012
GAUUUU,1.947 ± 0.0067,1.908 ± 0.0016
CAUCAU,1.921 ± 0.011,1.88 ± 0.043
CAUCAC,1.96 ± 0.06,1.92 ± 0.062
CAUCAA,1.938 ± 0.011,1.81 ± 0.042
CAUAAG,1.92 ± 0.016,1.71 ± 0.019
CAUAAC,1.9194 ± 0.0019,1.83 ± 0.056
CAUACC,1.93 ± 0.023,1.891 ± 0.016
CAUACA,1.9 ± 0.069,1.78 ± 0.051
CAUACU,1.92 ± 0.04,1.83 ± 0.052
UAUUAG,1.873 ± 0.0072,1.6759 ± 0.00016
UAGUUA,1.942 ± 0.013,1.861 ± 0.0033
UAGUUC,1.943 ± 0.0072,1.87 ± 0.008
UAGUUG,1.93 ± 0.053,1.707 ± 0.0035
UAGUUU,1.92 ± 0.04,1.86 ± 0.023
UAUGUU,1.94 ± 0.06,1.85 ± 0.049
UAUGUA,1.906 ± 0.0084,1.837 ± 0.0025

Variant,normalized RNA/DNA level with ligand (log10) (hypoxanthine [1]),normalized RNA/DNA level without ligand (log10) (hypoxanthine [2])
GCACAC,1.9 ± 0.042,1.63 ± 0.057
GCACAU,1.96 ± 0.033,1.76 ± 0.037
GAGUCU,1.96 ± 0.026,1.84 ± 0.01
GAGUCG,1.84 ± 0.019,1.38 ± 0.02
GAGUCC,2.015 ± 0.017,1.853 ± 0.013
CAUUCG,1.943 ± 0.012,1.89 ± 0.07
CAUUCU,1.91 ± 0.021,1.86 ± 0.034
CAUUCC,1.98 ± 0.055,1.9 ± 0.048
CAUUCA,1.92 ± 0.04,1.78 ± 0.029
AAUCAA,1.89 ± 0.066,1.75 ± 0.068
AAUCAG,1.838 ± 0.018,1.56 ± 0.041
UAGUAU,1.93 ± 0.041,1.761 ± 0.015
UAGUAC,1.94 ± 0.031,1.81 ± 0.035
ACAAUU,1.939 ± 0.019,1.736 ± 0.0095
ACAAUC,1.9924 ± 0.0011,1.93 ± 0.025
UAUGAA,1.915 ± 0.013,1.73 ± 0.023
UAUGAG,1.86 ± 0.046,1.54 ± 0.046
UAUGAU,1.91 ± 0.022,1.7488 ± 0.0016
ACAACC,1.91 ± 0.04,1.91 ± 0.013
ACAACG,1.89 ± 0.047,1.49 ± 0.021
ACAACA,1.92 ± 0.028,1.85 ± 0.022
ACAACU,1.885 ± 0.018,1.83 ± 0.037
UAUAGG,1.852 ± 0.017,1.43 ± 0.02

Variant,normalized RNA/DNA level with ligand (log10) (hypoxanthine [1]),normalized RNA/DNA level without ligand (log10) (hypoxanthine [2])
UAUAGA,1.892 ± 0.0092,1.63 ± 0.019
UAUAGC,1.95 ± 0.009,1.83 ± 0.054
GAGUUC,1.92 ± 0.093,1.86 ± 0.053
GAGUUA,1.891 ± 0.0028,1.64 ± 0.056
UCAACC,1.978 ± 0.0062,1.95 ± 0.06
UCAACU,1.962 ± 0.016,1.883 ± 0.0061
CAGUUG,1.93 ± 0.046,1.801 ± 0.015
CAGUUA,1.87 ± 0.055,1.49 ± 0.035
CAGUUC,1.91 ± 0.11,1.81 ± 0.031
CAGUUU,1.95 ± 0.053,1.79 ± 0.018
GAUCAG,1.92 ± 0.05,1.72 ± 0.016
AAUCUU,1.94 ± 0.029,1.914 ± 0.012
AAUCUC,2 ± 0.062,2.023 ± 0.02
AAUUUC,1.91 ± 0.0075,1.926 ± 0.0082
AAUUUU,1.946 ± 0.013,1.886 ± 0.0096
AAUUUA,1.93 ± 0.047,1.828 ± 0.0075
GCAAAA,1.928 ± 0.015,1.79 ± 0.025
GCAAAG,1.894 ± 0.0041,1.501 ± 0.0085
AAUUCC,1.98 ± 0.039,1.9 ± 0.027
AAUUCU,1.9751 ± 0.00092,1.855 ± 0.0071
UAUCAG,1.87 ± 0.019,1.7 ± 0.036
UAUCAU,1.922 ± 0.017,1.79 ± 0.045
CCACAC,1.93 ± 0.067,1.777 ± 0.015

Variant,normalized RNA/DNA level with ligand (log10) (hypoxanthine [1]),normalized RNA/DNA level without ligand (log10) (hypoxanthine [2])
CCACAA,1.9686 ± 0.0014,1.8 ± 0.033
CCACAU,1.92 ± 0.11,1.79 ± 0.049
CCACAG,1.92 ± 0.04,1.66 ± 0.059
CAUUUG,1.98 ± 0.1,1.9 ± 0.049
CAUUUU,1.973 ± 0.0049,1.804 ± 0.0085
UAUUCU,1.96 ± 0.079,1.88 ± 0.035
UAUUCG,1.929 ± 0.0088,1.74 ± 0.072
UAUUCC,1.95 ± 0.023,1.852 ± 0.012
AAUGCC,1.942 ± 0.015,1.83 ± 0.039
AAUGCU,1.92 ± 0.071,1.864 ± 0.011
UAGUCU,1.96 ± 0.028,1.88 ± 0.019
UAGUCG,1.924 ± 0.013,1.737 ± 0.0043
UCACGA,1.923 ± 0.011,1.8 ± 0.043
UCACGG,1.91 ± 0.043,1.79 ± 0.051
UCACGC,1.94 ± 0.033,1.78 ± 0.13
ACACAC,1.92 ± 0.023,1.74 ± 0.022
ACACAU,1.92 ± 0.03,1.723 ± 0.0032
ACACAA,1.92 ± 0.065,1.78 ± 0.028
ACACAG,1.84 ± 0.023,1.42 ± 0.054
UAUACG,1.83 ± 0.042,1.686 ± 0.008
UAUACC,1.95 ± 0.12,1.88 ± 0.014
GAUCGU,1.96 ± 0.11,1.838 ± 0.013
GAUCGA,1.952 ± 0.0048,1.809 ± 0.0024
